Reference: CN111690066A (NANJING RONGJIEKANG BIOTECHNOLOGY CO LTD, dated 2020)

T1: 自产IL-4Rα重组蛋白 (in-house human recombinant IL-4Rα, residues 26-232 of NP_000409.1, expressed in 293F cells) (human, UniProt P24394 26-232)
T1 construct: range 26-232; Cloned into pcDNA3.4 and expressed in 293F cells; The construct itself is defined on NP_000409.1; also called RJK; 人源重组IL-4Rα蛋白
T1 sequence (looked up): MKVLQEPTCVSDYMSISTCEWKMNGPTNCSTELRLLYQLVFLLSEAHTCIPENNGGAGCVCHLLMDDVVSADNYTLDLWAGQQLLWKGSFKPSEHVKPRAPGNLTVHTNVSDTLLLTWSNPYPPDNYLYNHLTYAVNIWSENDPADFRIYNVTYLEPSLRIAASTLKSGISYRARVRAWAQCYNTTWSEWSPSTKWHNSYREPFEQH


Legend:
[1] = biological target: T1, 自产IL-4Rα重组蛋白 (in-house human …); assay: binding ELISA of purified VHH on IL-4Rα recombinant protein
[2] = biological target: T1, 自产IL-4Rα重组蛋白 (in-house human …); assay: BLI (Octet RED96), IL-4Rα loaded on the sensor, antibody in solution from 100 nM in 2-fold dilutions

Row | EC50 [1] [nM] | Kd [2] [nM] | koff [2] [s⁻¹] | kon [2] [M⁻¹ s⁻¹] | Binder
1 | 2.13 | 0.239 | 0.000133 | 556000 | 单域抗体 4E9 (VHH) VHH: QVQLVESGGGSVQAGGSLRLSCAASGDFYCMAWFRQAPGKEREGVATIRSGGRSTYYADSVKGRFTISKDNAKDTLYLQMNSLKPEDTAMYYCAVGVDGNCRNYWGQGTQVTVSS
2 | 2.72 |  |  |  | 单域抗体 1A9 (VHH) VHH 1: QVPLQQSGPELVKPGASVKISCKASGYAFSSSWMNWVKQRPGKGLEWIGRIYPGDGDTKYNGKFKGKATLTADKSSSTAYMQLSSLTSEDSAVYFCARDDYDEASWGQGTLVTVSA VHH 2: DIVMTQSQKFMSTSVGDRVSITCKASQNVRSAVAWYQQKPGQSPKSLIYLASNRHTGVPDRFTGSGSGTDFTLTISNVQSEDLADYFCLQHWNYPFTFGSGTKLEIK
